Laboratory results taken from patent US20070020327A1.
Blank lines part the entries; values can stand above or below the binder they belong to.

Columns and labels:
HLA-A*0202 (human) [1] = assay: competition binding to purified HLA, 125I-labelled standard peptide, gel filtration; ratio = IC50 standard / IC50 test peptide
HLA-A*1101 (human) [2] = assay: competition with 125I-labelled standard peptide for purified HLA-A*1101, gel filtration; ratio to the A*1101 standard peptide 940.06 [..] (6.0 nM)
HLA-A*0101 (human) = assay: competition with 125I-labelled standard peptide for purified HLA-A*0101, gel filtration
HLA-A*6802 (human) [3] = assay: inhibition of 125I-labelled probe peptide binding to purified HLA; gel filtration
HLA-A*0202 (human) [4] = assay: as above
HLA-A*0201 (human) [5] = assay: as above
HLA-A*0206 (human) [6] = assay: as above
HLA-A*6802 (human) [7] = assay: inhibition of 125I probe peptide binding to purified HLA, gel filtration; ratio = IC50 standard/IC50 test; conditions: remark: other sources report otherwise
HLA-A*0301 (human) [8] = assay: competition with 125I-labelled standard peptide for purified HLA-A*0301, gel filtration
HLA-A*0202 (human) [9] = assay: competition with 125I-labelled standard peptide 941.01 for purified HLA-A*0202, gel filtration
HLA-A*0206 (human) [10] = assay: competition with 125I-labelled standard peptide 941.01 for purified HLA-A*0206, gel filtration
HLA-A*6802 (human) [11] = assay: competition with 125I-labelled standard peptide 1072.34 for purified HLA-A*6802, gel filtration
HLA-A*0201 (human) [12] = assay: competition with 125I-labelled standard peptide 941.01 for purified HLA-A*0201, gel filtration
HLA-A*6802 (human) [13] = assay: competition with 125I-labeled probe peptide for purified HLA, gel filtration
HLA-A*0202 (human) [14] = assay: as above
HLA-A*0206 (human) [15] = assay: as above
HLA-A*0203 (human) [16] = assay: as above
HLA-A*0201 (human) [17] = assay: as above
[18] = target: HLA-A*0301 (purified HLA class I molecule) (human); assay: competition binding assay with purified HLA-A*0301; inhibition of 125I-labelled standard peptide 941.12 ([..], 11 nM), gel filtration
HLA-A*0201 (human) [19] = assay: competitive inhibition of 125I-labelled standard peptide binding to purified HLA, gel filtration; ratio = IC50 standard / IC50 test peptide
HLA-A*0206 (human) [20] = assay: as above
HLA-A*0203 (human) [21] = assay: as above
HLA-A*6802 (human) [22] = assay: competition with 125I standard peptide for purified HLA; gel filtration
HLA-A*0202 (human) [23] = assay: as above
HLA-A*0201 (human) [24] = assay: as above
HLA-A*0203 (human) [25] = assay: as above
HLA-A*0202 (human) [26] = assay: competition for purified HLA with 125I-labelled standard peptide 941.01 [..] as competitor, gel filtration; conditions: remark: other sources report otherwise; scale: ratio
HLA-A*0203 (human) [27] = assay: inhibition of 125I-labelled probe peptide binding to purified HLA; gel filtration
HLA-A*0206 (human) [28] = assay: competition with 125I standard peptide for purified HLA; gel filtration
HLA-A*1101 (human) [29] = assay: competition with 125I-labelled standard peptide for purified HLA, gel filtration; conditions: scale: ratio
HLA-A*0301 (human) [30] = assay: as above; conditions: scale: ratio
HLA-A*0202 (human) [31] = assay: inhibition of 125I probe peptide binding to purified HLA, gel filtration; ratio = IC50 standard/IC50 test; conditions: remark: other sources report otherwise
HLA-A*0201 (human) [32] = assay: as above; conditions: remark: other sources report otherwise
HLA-A*1101 (human) [33] = assay: competition with 125I-labelled standard peptide for purified HLA-A*1101, gel filtration; standard 940.06 [..] (6.0 nM)
HLA-A*0203 (human) [34] = assay: competitive inhibition of 125I-labelled standard peptide binding to purified HLA
HLA-A*0206 (human) [35] = assay: competition with 125I-labelled standard peptide for purified HLA, gel filtration; ratio = IC50 standard / IC50 test peptide; conditions: remark: other sources report otherwise
HLA-A*0203 (human) [36] = assay: as above; conditions: remark: other sources report otherwise
HLA-A*0202 (human) [37] = assay: competitive inhibition of 125I-labelled standard peptide binding to purified HLA
HLA-A*0201 (human) [38] = assay: as above
HLA-A*0206 (human) [39] = assay: as above
[40] = remark: other sources report otherwise

- binding affinity ratio (HLA-A*0202 (human) [1]): 0.0003
Binder: DAVKVMDL (modifications not checked) [DAVKVMDL (PSA, position 130, 8 amino acids)]

- binding affinity ratio (IC50 of standard peptide / IC50 of test peptide) (HLA-A*1101 (human) [2]): 0.0002
- binding affinity ratio (IC50 of standard peptide / IC50 of test peptide) (HLA-A*0101 (human)): 0.0002
Binder: RNETQHEPY (modifications not checked) [… (PAP, position 332)]

- IC50 (HLA-A*6802 (human) [3]; [40]): 2290 nM
- IC50 (HLA-A*0202 (human) [4]; [40]): 94 nM
- IC50 (HLA-A*0201 (human) [5]; [40]): 250 nM
- IC50 (HLA-A*0206 (human) [6]; [40]): 451 nM
Binder: GVSIWNPILV (modifications not checked) [peptide 63.0041 (PAP.128.V10)]

- binding affinity ratio (HLA-A*0201 (human) [19]): -0.0001
- binding affinity ratio (HLA-A*0206 (human) [20]): 0.0003
- binding affinity ratio (HLA-A*0203 (human) [21]): 0.0003
Binder: VLGLPTQEPAL (modifications not checked) [… (Kallikrein, position 138)]

- binding affinity ratio (HLA-A*0202 (human) [26]): 0.05
Binder: IALSVGCTGA (modifications not checked) [… (Kallikrein position 8, 10-mer)]

- IC50 (HLA-A*6802 (human) [3]): 5.7 nM
- IC50 (HLA-A*0202 (human) [4]): 12 nM
- IC50 (HLA-A*0201 (human) [5]): 294 nM
- IC50 (HLA-A*0206 (human) [6]): 195 nM
- IC50 (HLA-A*0203 (human) [27]): 122 nM
Binder: TVSGLQMAV (modifications not checked) [peptide 60.0213 (PAP.292.V9)]

- binding affinity ratio (IC50 of standard peptide / IC50 of test peptide) (HLA-A*1101 (human) [2]): 2
- binding affinity ratio (HLA-A*1101 (human) [29]): 2
- binding affinity ratio (HLA-A*0301 (human) [30]): 1
- binding affinity ratio (IC50 of standard peptide / IC50 of test peptide) (HLA-A*0301 (human) [8]): 1
Binder: SLYESWTKK (modifications not checked) [… (PSM, position 492)]

- binding affinity ratio (HLA-A*0202 (human) [31]): 0.01
- binding affinity ratio (HLA-A*0201 (human) [32]): 0.001
Binder: AAHCIRNKSVI (modifications not checked) [… (PSA, position 59)]

- binding affinity ratio (IC50 of standard peptide / IC50 of test peptide) (HLA-A*1101 (human) [33]): 0.0008
Binder: QDLFGIWSK (modifications not checked) [PAP 200 …]

- IC50 (HLA-A*6802 (human) [13]; [40]): 571 nM
- IC50 (HLA-A*0201 (human) [17]; [40]): 313 nM
- IC50 (HLA-A*0206 (human) [15]; [40]): 40 nM
Binder: GTPEGDLVYV (modifications not checked) [Peptide 1418.29 … (PSM.168.T2)]

- binding affinity ratio (IC50 of standard peptide / IC50 of test peptide) (HLA-A*1101 (human) [33]; [40]): 0.031
Binder: RAVCGGVLVH (modifications not checked) [PSA 43 …]

- binding affinity ratio (IC50 of standard peptide / IC50 of test peptide) (HLA-A*1101 (human) [33]): 0.0002
Binder: PSKAWGEVKR (modifications not checked) [PSM 721 …]

- IC50 (HLA-A*6802 (human) [22]): 3.5 nM
- IC50 (HLA-A*0202 (human) [23]): 2.9 nM
- IC50 (HLA-A*0201 (human) [24]): 10 nM
- IC50 (HLA-A*0206 (human) [28]): 5.6 nM
- IC50 (HLA-A*0203 (human) [25]): 12 nM
Binder: LVCNGVLQGV (modifications not checked) [Peptide 1418.55 … (HuK2.217.V10)]

- binding affinity ratio (ratio to standard peptide) (HLA-A*0206 (human) [35]): 0.0005
- binding affinity ratio (ratio to standard peptide) (HLA-A*0203 (human) [36]): 0.02
Binder: QVAVYSHGWA (modifications not checked) [Kallikrein (hK2) peptide …, position 39, 10 amino acids]

- IC50 (HLA-A*0202 (human) [37]): 3 nM
- IC50 (HLA-A*0201 (human) [38]): 6.8 nM
- IC50 (HLA-A*0206 (human) [39]): 65 nM
- IC50 (HLA-A*0203 (human) [34]): 18 nM
Binder: FLTLSVTWIGV (modifications not checked) [Peptide 63.0186, … (PSA.3.V11)]

More lines, now with the values behind:

Binder: DTGQRVPV (modifications not checked) [DTGQRVPV (Kallikrein, position 85, 8 amino acids)]
- binding affinity ratio (HLA-A*0202 (human) [1]): 0.0001

Binder: ALSVGCTGA (modifications not checked) [… (Kallikrein, position 9)]
- binding affinity ratio (HLA-A*6802 (human) [7]): -0.0001

Binder: SLLSLYGIH (modifications not checked) [… (PAP, position 242)]
- binding affinity ratio (IC50 of standard peptide / IC50 of test peptide) (HLA-A*1101 (human) [2]): 0.0002
- binding affinity ratio (IC50 of standard peptide / IC50 of test peptide) (HLA-A*0301 (human) [8]): 0.0006

Binder: RLSEPAKI (modifications not checked) [RLSEPAKI (Kallikrein, position 125)]
- binding affinity ratio (IC50 of standard peptide / IC50 of test peptide) (HLA-A*0202 (human) [9]): 0.0005
- binding affinity ratio (IC50 of standard peptide / IC50 of test peptide) (HLA-A*0206 (human) [10]): -0.0001
- binding affinity ratio (IC50 of standard peptide / IC50 of test peptide) (HLA-A*6802 (human) [11]): -0.0001
- binding affinity ratio (IC50 of standard peptide / IC50 of test peptide) (HLA-A*0201 (human) [12]): -0.0001

Binder: MMNDQLMFL (modifications not checked) [Peptide 1126.01 … (PSM.663)]
- IC50 (HLA-A*6802 (human) [13]): 195 nM
- IC50 (HLA-A*0202 (human) [14]): 0.8 nM
- IC50 (HLA-A*0206 (human) [15]): 7.6 nM
- IC50 (HLA-A*0203 (human) [16]): 1.7 nM

Binder: LMYSLVHNL (modifications not checked) [Peptide 1126.14 … (PSM.469)]
- IC50 (HLA-A*6802 (human) [13]): 320 nM
- IC50 (HLA-A*0202 (human) [14]): 0.4 nM
- IC50 (HLA-A*0201 (human) [17]): 64 nM

Binder: DTFPTDPIK (modifications not checked) [PAP peptide … (position 51, 9 amino acids)]
- binding affinity ratio (IC50 of standard peptide / IC50 of test peptide) (ratio to standard peptide) [18]: 0.0001

Binder: DVLLSYPNK (modifications not checked) [PSM peptide … (position 114, 9 amino acids)]
- binding affinity ratio (IC50 of standard peptide / IC50 of test peptide) (ratio to standard peptide) [18]: 0.0006

Binder: LLWQPIPVHV (modifications not checked) [Peptide 1419.69 … (PAP.136.V10)]
- IC50 (HLA-A*6802 (human) [22]): 60 nM
- IC50 (HLA-A*0202 (human) [23]): 1.8 nM
- IC50 (HLA-A*0201 (human) [24]): 25 nM
- IC50 (HLA-A*0203 (human) [25]): 17 nM

Binder: LLSNDMCARV (modifications not checked) [Peptide 1418.53 … (HuK2.178.V10)]
- IC50 (HLA-A*6802 (human) [22]; [40]): 1700 nM
- IC50 (HLA-A*0202 (human) [23]; [40]): 0.7 nM
- IC50 (HLA-A*0201 (human) [24]; [40]): 5.3 nM
- IC50 (HLA-A*0206 (human) [28]; [40]): 10 nM
- IC50 (HLA-A*0203 (human) [25]; [40]): 4.3 nM

Binder: VLAGGFFLV (modifications not checked) [Peptide 1389.20 … (PSM.27.V9)]
- IC50 (HLA-A*0202 (human) [14]): 0.4 nM
- IC50 (HLA-A*0201 (human) [17]): 26 nM
- IC50 (HLA-A*0206 (human) [15]): 57 nM
- IC50 (HLA-A*0203 (human) [16]): 5 nM

Binder: EIASKFSER (modifications not checked) [PSM peptide … (position 641, 9 amino acids)]
- binding affinity ratio (IC50 of standard peptide / IC50 of test peptide) (ratio to standard peptide) [18]: 0.0006

Binder: VLTAAHCL (modifications not checked) [VLTAAHCL (Kallikrein, position 60)]
- binding affinity ratio (HLA-A*0201 (human) [19]): 0.0002
- binding affinity ratio (HLA-A*0206 (human) [20]): 0.0001
- binding affinity ratio (HLA-A*0203 (human) [21]): 0.0001

Binder: KVTEFMLCV (modifications not checked) [Peptide 1418.21 … (HuK2.191.V9)]
- IC50 (HLA-A*6802 (human) [22]; [40]): 6670 nM

Binder: MLLRLSEPAEV (modifications not checked) [Peptide 1389.12, … (PSA.118.V11)]
- IC50 (HLA-A*0203 (human) [34]; [40]): 115 nM
